Key:
[1] = target: SIINFEKL on MHC-I (H-2K^b) on C57BL/6 splenocytes (mouse; chicken); assay: flow cytometry, C57BL/6 splenocytes pulsed 2 h with SIINFEKL and stained with the APC antibody
[2] = target: T1, MHC-I molecule (H-2K^b) on C57BL/6 splenocytes (mouse, UniProt P01887 21-119; P01901 22-369); assay: cell-based or functional assay
T1 sequence (MHC heavy): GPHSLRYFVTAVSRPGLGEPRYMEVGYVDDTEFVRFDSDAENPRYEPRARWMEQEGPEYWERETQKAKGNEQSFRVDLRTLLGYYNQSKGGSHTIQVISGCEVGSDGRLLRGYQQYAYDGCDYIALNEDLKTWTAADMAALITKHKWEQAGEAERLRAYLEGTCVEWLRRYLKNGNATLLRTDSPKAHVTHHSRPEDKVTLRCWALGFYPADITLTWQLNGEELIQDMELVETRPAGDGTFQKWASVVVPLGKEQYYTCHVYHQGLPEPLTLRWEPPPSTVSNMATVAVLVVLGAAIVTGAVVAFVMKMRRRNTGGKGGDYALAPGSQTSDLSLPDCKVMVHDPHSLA
T1 sequence (b2m): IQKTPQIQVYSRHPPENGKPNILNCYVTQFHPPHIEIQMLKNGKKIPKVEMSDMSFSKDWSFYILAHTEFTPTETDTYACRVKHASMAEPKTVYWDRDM

Row | Molecule | % of splenocytes positive [1] | proportion of splenocytes cross-presenting SIINFEKL on MHC-I (flow cytometry with anti-H-2K^b bound to SIINFEKL) [2]
1 | APC anti-mouse H-2K^b bound to SIINFEKL (BioLegend) (antibody) | 98.5% | –
2 | SIINFEKLKKKKKK [SIINFEKL-polyK] | – | 27.1%
3 | KKKKKKSIINFEKL [polyK-SIINFEKL] | – | 94.5%
4 | SIINFEKLKKKKKK (amino caproic acid (AHX) residue between SIINFEKL and polyK) [SIINFEKL-AHX-polyK] | – | 1.36%
